Test results as given in patent publication US20240052042A1 (Novartis, published 2024).

How the values were obtained:
rNPR1-ANP complex = target: T1, rNPR1-ANP complex (rat, UniProt P01160 124-151 (human entry), limits assumed); assay: SET, FabCys
T1 construct: rNPR1 antigen in the presence of ANP; also called rNPR1 + 100 nM ANP
T1 sequence: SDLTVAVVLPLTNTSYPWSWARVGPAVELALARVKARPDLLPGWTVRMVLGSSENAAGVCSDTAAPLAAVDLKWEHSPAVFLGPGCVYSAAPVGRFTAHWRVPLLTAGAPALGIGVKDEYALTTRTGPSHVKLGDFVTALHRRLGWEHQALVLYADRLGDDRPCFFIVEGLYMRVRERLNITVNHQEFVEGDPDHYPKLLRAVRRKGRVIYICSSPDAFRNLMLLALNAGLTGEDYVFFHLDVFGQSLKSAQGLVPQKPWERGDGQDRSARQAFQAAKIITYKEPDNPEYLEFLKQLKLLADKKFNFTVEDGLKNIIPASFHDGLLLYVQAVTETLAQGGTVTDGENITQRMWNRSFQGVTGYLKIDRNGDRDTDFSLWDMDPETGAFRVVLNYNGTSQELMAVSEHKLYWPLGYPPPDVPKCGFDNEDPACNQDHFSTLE
T1 sequence (peptide): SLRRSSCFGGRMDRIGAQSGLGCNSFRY

rat NPR1 (rNPR1) = target: T2, rat NPR1 (rNPR1) (rat, UniProt P18910 29-469, limits assumed); assay: SET, FabCys
T2 construct: Soluble antigen
T2 sequence: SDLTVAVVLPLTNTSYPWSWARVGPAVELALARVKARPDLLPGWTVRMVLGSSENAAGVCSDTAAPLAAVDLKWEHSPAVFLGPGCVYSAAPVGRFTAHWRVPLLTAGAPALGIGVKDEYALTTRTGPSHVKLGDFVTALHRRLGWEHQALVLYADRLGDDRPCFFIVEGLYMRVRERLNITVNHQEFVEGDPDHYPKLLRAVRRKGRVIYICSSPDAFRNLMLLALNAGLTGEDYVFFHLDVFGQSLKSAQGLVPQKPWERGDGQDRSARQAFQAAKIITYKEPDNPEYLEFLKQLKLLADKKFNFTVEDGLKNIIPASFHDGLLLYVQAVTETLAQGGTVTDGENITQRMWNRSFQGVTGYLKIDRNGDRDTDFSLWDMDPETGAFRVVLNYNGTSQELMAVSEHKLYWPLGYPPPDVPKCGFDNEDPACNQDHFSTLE

hNPR1-ANP complex = target: T3, hNPR1-ANP complex (human, UniProt P01160 124-151, limits assumed); assay: SET, FabCys
T3 construct: hNPR1 antigen in the presence of ANP; also called hNPR1 + 100 nM ANP
T3 sequence: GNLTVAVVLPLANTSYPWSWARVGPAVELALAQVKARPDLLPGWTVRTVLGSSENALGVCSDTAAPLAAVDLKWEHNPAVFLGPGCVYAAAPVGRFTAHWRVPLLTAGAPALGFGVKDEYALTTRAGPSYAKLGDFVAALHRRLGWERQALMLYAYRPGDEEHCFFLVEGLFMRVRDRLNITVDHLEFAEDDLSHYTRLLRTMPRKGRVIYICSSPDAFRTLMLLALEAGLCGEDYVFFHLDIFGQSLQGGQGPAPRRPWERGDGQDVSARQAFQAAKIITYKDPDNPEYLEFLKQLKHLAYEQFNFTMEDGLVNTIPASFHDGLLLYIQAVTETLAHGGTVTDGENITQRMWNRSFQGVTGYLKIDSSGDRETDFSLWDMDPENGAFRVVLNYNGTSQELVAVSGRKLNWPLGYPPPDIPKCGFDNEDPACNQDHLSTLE
T3 sequence (peptide): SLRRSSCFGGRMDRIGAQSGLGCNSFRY

[1] = target: T4, human Natriuretic Peptide Receptor 1 (hNPR1) (human, UniProt P16066 33-473, limits assumed); assay: SET, FabCys
T4 construct: pannings used NPR1-hFc; also called NPR1-hFc
T4 sequence: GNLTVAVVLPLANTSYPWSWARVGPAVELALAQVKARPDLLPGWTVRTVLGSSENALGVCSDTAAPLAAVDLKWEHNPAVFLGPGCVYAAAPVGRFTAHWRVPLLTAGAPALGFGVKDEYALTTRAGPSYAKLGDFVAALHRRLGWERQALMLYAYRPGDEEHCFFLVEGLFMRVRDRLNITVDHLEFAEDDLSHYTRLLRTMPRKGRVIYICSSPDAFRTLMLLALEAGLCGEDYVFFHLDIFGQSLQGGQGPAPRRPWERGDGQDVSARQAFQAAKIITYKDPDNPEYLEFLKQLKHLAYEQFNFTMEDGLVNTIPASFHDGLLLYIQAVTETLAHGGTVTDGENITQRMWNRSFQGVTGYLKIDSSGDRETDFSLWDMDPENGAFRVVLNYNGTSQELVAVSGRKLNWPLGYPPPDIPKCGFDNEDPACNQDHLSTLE

human NPR2 on CHO cells = target: T5, human NPR2 on CHO cells (human, UniProt P20594 23-1047); assay: cell-based or functional assay
T5 sequence (looked up): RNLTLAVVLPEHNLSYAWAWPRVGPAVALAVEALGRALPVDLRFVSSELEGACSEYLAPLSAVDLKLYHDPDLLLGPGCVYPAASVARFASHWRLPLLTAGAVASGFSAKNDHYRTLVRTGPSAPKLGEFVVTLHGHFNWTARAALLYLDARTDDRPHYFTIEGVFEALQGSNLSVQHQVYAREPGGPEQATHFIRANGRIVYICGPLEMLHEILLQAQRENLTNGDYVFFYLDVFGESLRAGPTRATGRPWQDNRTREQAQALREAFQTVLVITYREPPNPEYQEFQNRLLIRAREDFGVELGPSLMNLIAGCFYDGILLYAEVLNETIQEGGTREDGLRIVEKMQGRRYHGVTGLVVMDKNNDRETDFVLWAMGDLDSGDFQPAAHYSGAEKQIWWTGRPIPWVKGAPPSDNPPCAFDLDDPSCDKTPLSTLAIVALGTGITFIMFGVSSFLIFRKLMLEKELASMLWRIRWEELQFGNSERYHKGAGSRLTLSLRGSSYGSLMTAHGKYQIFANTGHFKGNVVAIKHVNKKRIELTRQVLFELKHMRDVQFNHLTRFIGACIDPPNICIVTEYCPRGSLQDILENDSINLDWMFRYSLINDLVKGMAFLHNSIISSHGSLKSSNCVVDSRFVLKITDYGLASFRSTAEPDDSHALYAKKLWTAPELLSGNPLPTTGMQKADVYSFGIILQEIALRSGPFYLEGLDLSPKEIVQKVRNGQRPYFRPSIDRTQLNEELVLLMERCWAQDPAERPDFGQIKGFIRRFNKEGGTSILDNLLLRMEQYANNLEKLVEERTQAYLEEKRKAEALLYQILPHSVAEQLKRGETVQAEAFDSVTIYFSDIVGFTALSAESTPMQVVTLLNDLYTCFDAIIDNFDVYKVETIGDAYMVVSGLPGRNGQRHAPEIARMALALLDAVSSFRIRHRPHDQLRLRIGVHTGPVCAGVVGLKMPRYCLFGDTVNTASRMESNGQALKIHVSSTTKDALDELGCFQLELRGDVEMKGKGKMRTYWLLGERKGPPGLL

B1: ZZ17 (FabCys format) (Fab, V domains shown)
VH: EVQLLESGGGLVQPGGSLRLSCAASGFTFSDYAISWVRQAPGKGLEWVSSISGGGYHTQYAGSVKGRFTISRDNSKNTLYLQMNSLRAEDTAVYYCARPYLGDRRSYGFDHWGQGTLVTVSS
VL: QSALTQPASVSGSPGQSITISCTGTSSDVGSYNLVSWYQQHPGKAPKLMIYEGSKRPSGVSNRFSGSKSGNTASLTISGLQAEDEADYYCSSYGFHIVVVVFGGGTKLTVL
notes: Monovalent FabCys
Q: For B1, which Kd (rNPR1-ANP complex) is on record?
A: The Kd was 36 nM.

Q: And the Kd (rat NPR1 (rNPR1))?
A: Its Kd is 52 nM.

B2: ZZ05 (FabCys format) (Fab, V domains shown)
VH: EVQLVQSGAEVKKPGESLKISCKGSGYSFTSYWISWVRQMPGKGLEWMGIIYPGTSYTRYSPSFQGQVTISADKSISTAYLQWSSLKASDTAMYYCARGSLPGLLGFDHWGQGTLVTVSS
VL: QSVLTQPPSVSGAPGQRVTISCTGSSSNIGAGYDVHWYQQLPGTAPKLLIYGNSNRPNGVPDRFSGSKSGTSASLAITGLQAEDEADYYCQSYGAFPRFVVFGGGTKLTVL
notes: Monovalent FabCys
Q: How did the Kd (hNPR1-ANP complex) turn out when B2 was run?
A: Its Kd is 1.2 nM.

Q: What about the Kd [1] of the same binder?
A: The Kd was 0.74 nM.

B3: XX16 (anti-NPR1 IgG) (antibody, V domains shown)
VH: EVQLLESGGGLVQPGGSLRLSCAASGFTFSSYWMNWVRQAPGKGLEWVSVIESKGNYIFYADSVKGRFTISRDNSKNTLYLQMNSLRAEDTAVYYCARDRYSMIYSYGAGAFDYWGQGTLVTVSS
VL: DIQMTQSPSSLSASVGDRVTITCRASQGISSYLAWYQQKPGKAPKLLIYTASTLQSGVPSRFSGSGSGTDFTLTISSLQPEDFATYYCQQTWRKPRTFGQGTKVEIK
Q: For B3, which “cGMP generation EC50” value (human NPR2 on CHO cells) is on record?
A: Its value is greater than 500 nM.

Q: What about the “cGMP generation Y max (% of ANP)” value (human NPR2 on CHO cells) of the same binder?
A: The value was < 1 % of ANP.

B4: XX18 (IgG) (antibody, V domains shown)
VH: EVQLLESGGGLVQPGGSLRLSCAASGFTFSSYWMNWVRQAPGKGLEWVSVIESKGNYIFYADSVKGRFTISRDNSKNTLYLQMNSLRAEDTAVYYCARDRYSMIYSYGAGAFDYWGQGTLVTVSS
VL: DIQMTQSPSSLSASVGDRVTITCRASQGISSYLAWYQQKPGKAPKLLIYTASTLQSGVPSRFSGSGSGTDFTLTISSLQPEDFATYYCQQEWAKPRTFGQGTKVEIK
Q: B4 was tested. Which “cGMP generation EC50” value (human NPR2 on CHO cells) did it give?
A: Its value is greater than 500 nM.

Q: What about the “cGMP generation Y max (% of ANP)” value (human NPR2 on CHO cells) of the same binder?
A: Its value is < 1 % of ANP.

B5: XX15 (IgG) (antibody, V domains shown)
VH: EVQLLESGGGLVQPGGSLRLSCAASGFTFSSYWMNWVRQAPGKGLEWVSVIESKGNYIFYADSVKGRFTISRDNSKNTLYLQMNSLRAEDTAVYYCARDRYSMIYSYGAGAFDYWGQGTLVTVSS
VL: DIQMTQSPSSLSASVGDRVTITCRASQGISSYLAWYQQKPGKAPKLLIYTASTLQSGVPSRFSGSGSGTDFTLTISSLQPEDFATYYCQQEWVKPRTFGQGTKVEIK
Q: B5 was tested. Which “cGMP generation EC50” value (human NPR2 on CHO cells) did it give?
A: Its value is greater than 500 nM.

Q: And the “cGMP generation Y max (% of ANP)” value (human NPR2 on CHO cells)?
A: The value was < 1 % of ANP.
